Data published in the DeepSol protein solubility set.

Assay: soluble on expression in E. coli; label from the status in PepcDB or PDB records

Question: With “MPAGHEDIGLPQDDEAFMRYRERRIQELCGKVEEVVSEKELIEKTKSLRMIVHFYKPEFKRCKTMDKGLEEVKDCFPGIRFYRVNAEICPVVARKLEIRVLPFLGFFKDGYFVDQVVGFEKLGGDSVEPEVLKKRILDSNIFKPISSI” as the sequence, how does the “soluble on expression in E. coli” value read?
Answer: not soluble

Question: With “MGSDKIHHHHHHMSIVGNVENLINGVGELWNKYVKHEFILKMRDGSLPLDIFRYYLIQDGKYVEDMLRALLIASSKGPIDKVTKILNLVFSSRDKGLETHGKLYSKLDISRDVIVKTGYNLINYAYTRHLYYYANLDWNKFLVAWTPCMFGYSIVGDYVIDSPNEVYKTWASFYASTEYKKRIEAILYALDEVSITEDLLNIFINSVRFEIGFWDASLRKDPTVY” as the sequence, how does the “soluble on expression in E. coli” value read?
Answer: not soluble

Question: Which “soluble on expression in E. coli” value does the source give for “MWTDAGGQVHEAASGDVRIASLVPSITELLFDLGLADQLVARTGFCIHPEPAVRAVAKVGGTKDVKLDRLRALAPTHVVVNIDENRRETVDEIRTFVPHVIVTHPCAPEDNLALYRLLGGIFGRRPQAEALVGQLRGELDAIQAQTWPARRVLYAIWQDPWMTVSRATYISRMLALVNWATWPDDADTSDTPAACVDGDCSRPNAPGERYPTFRWSDALVRELDAVLLSTEPYRFTEDHADALERQIGKPVLLVDGEMLSWYGSRAVAGARYLRSLAQGFLEHHHHHH” here?
Answer: soluble

Question: Which “soluble on expression in E. coli” value does the source give for “EKPANRQQTLEILAQHIEMDGVRQFLSKSLFKNEDHMAWRFNVDSLLSNYAEIIGWQDIAPTEIPTLFIKGGDSDYLMPEHQPSVQRQFKQAKAHIIANTGHWLHAEKPAEVMRVIRKYISS” here?
Answer: not soluble

Question: Which “soluble on expression in E. coli” value does the source give for “MGSDKIHHHHHHMSISEQCVIEIDKYIDYFKKNTSQPNILAKLFKTDSSYYVYDTGTNKVLTCGEYEYSILGKIIDNKFDEISRINDDADKSGFYEALENVRQAIEKEDILRGGKEWKFVSKGHFEELDKKLNYELDQITLELTEKCNLRCRYCIYNESYEHKRNFGNKDMPIEIAEKAIDYANLHSGKEKGVGVTFYGGEPLVNFKLLKHSIEYSRKVIKDKKLTFSLTSNLTLMTPEIATYLASIENLTILCSIDGPEEIHDSYRKDINGNGTFKRAIRGLKYLIEAFGDKANKAVMMNMVFTPPYSIEKVNKIETFINSLDWLPKGLRISMTYPSTGSVDDTPPKGCEKNYGMELIQWSESKYKSELKSDGKIDMFNEEFVVHPILRIHGRRISAKSESGYPVNGCCIPGSRKLYVTVDGNFQICERINGSPIIGNVFNGIDENKIKNEVIDEFINKSIKDCSRCWAARLCNVCYSHCYTDGKLDMKEKKRYCIRSRERALRSLVFYHKCAEINPEKLKYLNKIEVS” here?
Answer: not soluble

Question: With “MLTDQEKIDLVNALDFVVIEPHTQSIYVHNDEKTNGVLAKVLHTISVDEYIESFKKGSLIDIFPAAMQEAGAEGFKDGQFVIMPKKFYVDQCYAMSKEIERLTNLNNLHNIKPNTYQGLIHLEHHHHHH” as the sequence, how does the “soluble on expression in E. coli” value read?
Answer: soluble

Question: With “MEVIKITPRGYCYGVVDAMVIARNAALDPSLPRPIYILGMIVHNKHVTDAFAEEGIITLDGENRLEILEKIDHGTVIFTAHGVSPEVKKRALEKGLVTIDATCPDVTKTHRLIEQKLADGYDIIYIGKKGHPEPEGAVGINPERIHLVETIDDVERLSIHNERIMVTNQTTMSQWDVADIMAKVKEKYPHVEMHKEICLATQLRQEAVAEQAKEADVTIVVGDPRSNNSNRLAQVSEEIAGTKAYRVADVTEIDINWIKDAKKVAVTAGASTPTPITKEVIDFLEQFDPNDPSTWKRERKVPLQKILPKVKTKKEE” as the sequence, how does the “soluble on expression in E. coli” value read?
Answer: not soluble

Question: For “EVVVTGMQKMDKRLFTGAATKLDAEGVKLNGMADISRGLEGRAAGVSVQNVSGTFGTAPKIRVRGATSIYGSSKPLWVVDGVIMEDAVEVSADQLSSGDAETLISSAIAGLNADDIESFQILKDGSATSIYGARAMAGVIVVTTKKGK”, which “soluble on expression in E. coli” value is on record?
Answer: not soluble

Question: For “MAHHHHHHMFNEAAVPFIQTARDNGLLFGGSDAPAMIDYTSEHGKSYHVRGSIFEVAPHFEVLNGIGYGAYGVVCAAVDLRLVASSVYYNEAMRTIEEEGRIVTRQRRGHDAPVYFRTRAVLDEAGRGGPVRVPHLYSEPFKRRTLARGEVSPFVAIKKVTKVFDDLVDGRRILREIKLLRYLQGHPNIVRLMEVGRPPAPTGASSSAAFDDIYLVTDLMDTDLGALLRSSQEIAMDQLRFIAYQLMKVLVYVHSSGVIHRDLKPGNILLNGNCDMKLCDFGLSRGGVPAWPHERTLTAVATAAESSAKELEDWGLFCWSSSAARGASSAPHAAKQPPLYSLTDYVVTRYYRAPELLIMGRYNHAIDMWSAGCILAEMVLRRPLFTGANYLSQLALILETPGLRGVPQTPEEAAALFEGGEEGKHFINDILFHKTARRRDPLTLSDQVHSQVLFHSTLFGFKVDVPISLGILIAKLLSFDPRKRPTALEALRDPFFWPLYDSRDEILRCPASDPSVAREQIDDIAAYQKAHPCVVVDESPVFTWEFDHRITSAQALRGLFEEECQISRDVQQQLERQQRLRSSPVVKCSERRTLERSLFSGASDGSSGGDGAH”, which “soluble on expression in E. coli” value is on record?
Answer: not soluble

Question: For “MTENTLDPAADLLERLGDKRFRTILADPPWQFQNRTGKMAPEHKRLNRYGTMSLEAIAGLPVERLTADTAHLYLWVPNALLLEGLKVMEAWGFTYKTNLVWHKIRKDGGPDGRGVGFYFRNVTELVLFGVRGKNARTLAAGRRQVNFLATRKREHSRKPDEMYGIIESCSPGPYLELFARGARDRWSVWGNEADENYYPRWNTYANHSQAEICPFEAAALEHHHHHH”, which “soluble on expression in E. coli” value is on record?
Answer: soluble

Question: For “MSAPLRVLVTGAAGQIGYSIVIRIADGTVFGKEQPVELVLLDVPQCSNILEGVVFELQDCALPTLFSVVAVTDEKSAFTGIDYAFLVGAMPRREGMERKDLLAANVKIFKSQGKALAEYAKPTTKVIVVGNPANTNAFIAAKYAAGKIPAKNFSAMTRLDHNRALAQLALKTGTTIGNVKNVIIWGNHSGTQFPDVTHATVNKNGTETDAYAAVGDNAFLQGPFIATVQKRGGVIIEKRKLSSAMSAAKAACDHIHDWHFGTKAGQFVSMAVPSDGSYGIPQGLIFSFPVTIEGGEWKIVQGLSFDDFAKGKIAATTKELEEERDDALKACDDANI”, which “soluble on expression in E. coli” value is on record?
Answer: not soluble

Question: For “MGSDKIHHHHHHMRRLPHVTWLRSFEAAARHSSFSAAAEELHLTPAAVSQQIRQLEHHLGFQLFKRLPKGVELTDIGQAYAIPVRKSFVQMQEATDGLFRVQSKSVLRVRCSISFAALILAPLLRDFAEIHPDIDVELSTAVWSDRMEGAGVDLDIRYGAACWPEQNVHPLPVEEATLVCHPDYAAQLGSALDPAWLGAADIVQIVGSETDWDRYLRLCGIDTPRPRHWMKADSSLIALQILSAGRGCALISRSFARQALSEGRLVAPFDLSLPMQESFVLVERDDLRENPGLRKLVDWLLTQRL”, which “soluble on expression in E. coli” value is on record?
Answer: not soluble
